In patent US20170306037A1 (Novartis, published 2017):

Legend:
Assay in all cases: specificity ELISA, bacterial lysate on HisGrab nickel plate
DR4 = target: T1, DR4 (human, UniProt O00220)
T1 sequence (receptor, looked up): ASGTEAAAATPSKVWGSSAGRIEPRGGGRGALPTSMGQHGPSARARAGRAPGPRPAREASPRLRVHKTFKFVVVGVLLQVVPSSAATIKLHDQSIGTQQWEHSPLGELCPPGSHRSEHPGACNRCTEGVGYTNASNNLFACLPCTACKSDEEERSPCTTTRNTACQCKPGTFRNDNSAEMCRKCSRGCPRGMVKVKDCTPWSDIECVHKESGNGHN
Protocol: (§1) For the specificity ELISA, a crude cell lysate was made from bacteria expressing members of the TNFRSF family. To prevent nonspecific binding to the plate 50 μL of 5% BSA was added per mL of bacterial lysate. […] The plate was then rinsed three times with PBST, then MAB was diluted to 0.5 μg/mL in 10% FBS in PBS and 100 μL was added to each well. The plate was incubated for 1 hour at room temperature and then rinsed three times with PBST. Anti-human kappa antibody (Sigma #A7164) conjugated to HRP was diluted 1:5000 in 1:1 PBST: 10% FBS in PBS and 100 μL added to each well. The plate was incubated for 1 hour at room temperature, and then washed three times with PBST. 100 μL of SureBlue TMB substrate was added to each well and the plate was incubated for about 10 min at room temperature before stopping the reaction with 100 μL /well of 2N H₂SO₄.

HVEM = target: T2, HVEM (human, UniProt Q92956)
T2 sequence (receptor, looked up): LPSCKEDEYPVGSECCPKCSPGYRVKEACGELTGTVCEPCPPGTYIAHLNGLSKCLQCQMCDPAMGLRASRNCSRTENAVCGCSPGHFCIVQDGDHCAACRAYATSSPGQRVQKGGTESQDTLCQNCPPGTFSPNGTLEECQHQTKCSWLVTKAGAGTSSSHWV
Protocol: as §1

TNFR1 = target: T3, TNFR1 (human, UniProt P19438)
T3 sequence (receptor, looked up): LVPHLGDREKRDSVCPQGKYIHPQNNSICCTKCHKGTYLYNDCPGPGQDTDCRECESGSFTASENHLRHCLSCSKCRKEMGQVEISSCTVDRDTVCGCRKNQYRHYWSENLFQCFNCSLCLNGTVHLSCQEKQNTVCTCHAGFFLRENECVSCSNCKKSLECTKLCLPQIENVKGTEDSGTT
Protocol: as §1

OX40 = target: T4, OX40 (human, UniProt P43489)
T4 sequence (receptor, looked up): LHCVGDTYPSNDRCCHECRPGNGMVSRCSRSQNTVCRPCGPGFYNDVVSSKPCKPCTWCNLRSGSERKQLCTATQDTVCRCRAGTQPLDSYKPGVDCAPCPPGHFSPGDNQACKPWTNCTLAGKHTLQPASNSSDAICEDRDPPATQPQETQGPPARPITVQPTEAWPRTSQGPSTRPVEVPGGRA
Protocol: as §1

CD27 = target: T5, CD27 (human, UniProt P26842)
T5 sequence (receptor, looked up): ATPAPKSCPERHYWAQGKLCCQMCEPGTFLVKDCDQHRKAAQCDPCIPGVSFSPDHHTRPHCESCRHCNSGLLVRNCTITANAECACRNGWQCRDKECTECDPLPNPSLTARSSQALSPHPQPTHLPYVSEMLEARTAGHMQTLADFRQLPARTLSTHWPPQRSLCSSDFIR
Protocol: as §1

BAFFR = target: T6, BAFFR (human, UniProt Q96RJ3)
T6 sequence (receptor, looked up): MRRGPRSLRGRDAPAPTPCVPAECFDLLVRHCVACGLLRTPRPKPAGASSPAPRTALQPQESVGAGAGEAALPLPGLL
Protocol: as §1

TNFR3 = TNFR3 (human, UniProt P36941)
TNFR3, sequence (P36941 31-227 limits assumed): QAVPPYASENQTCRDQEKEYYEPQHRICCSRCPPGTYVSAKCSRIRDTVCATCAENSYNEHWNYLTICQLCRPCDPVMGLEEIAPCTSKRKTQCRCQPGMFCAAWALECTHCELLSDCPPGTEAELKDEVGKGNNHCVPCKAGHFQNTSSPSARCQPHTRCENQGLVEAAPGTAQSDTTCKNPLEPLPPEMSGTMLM
Protocol: as §1

OPG = target: T7, OPG (human, UniProt O00300)
T7 sequence (receptor, looked up): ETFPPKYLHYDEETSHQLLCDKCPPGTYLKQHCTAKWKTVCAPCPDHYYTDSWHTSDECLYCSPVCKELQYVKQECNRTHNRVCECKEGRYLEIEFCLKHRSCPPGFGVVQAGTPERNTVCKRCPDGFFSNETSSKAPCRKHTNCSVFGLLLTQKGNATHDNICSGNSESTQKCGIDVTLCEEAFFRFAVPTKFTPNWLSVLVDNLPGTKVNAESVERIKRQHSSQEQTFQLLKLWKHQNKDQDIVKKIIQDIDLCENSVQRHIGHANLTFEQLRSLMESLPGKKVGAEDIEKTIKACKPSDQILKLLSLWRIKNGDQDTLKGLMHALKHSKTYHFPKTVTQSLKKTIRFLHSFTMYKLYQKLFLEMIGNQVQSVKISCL
Protocol: as §1

CD137 = target: T8, CD137 (human, UniProt Q07011)
T8 construct: also called TNFRSF9
Protocol: as §1

DcR2 = target: T9, DcR2 (human, UniProt Q9UBN6)
T9 sequence (receptor, looked up): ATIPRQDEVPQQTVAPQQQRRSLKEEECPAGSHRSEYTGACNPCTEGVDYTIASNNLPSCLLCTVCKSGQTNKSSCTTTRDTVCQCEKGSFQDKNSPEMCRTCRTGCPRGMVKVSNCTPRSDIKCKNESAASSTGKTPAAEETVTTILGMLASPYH
Protocol: as §1

NGFR = target: T10, NGFR (human, UniProt P08138)
T10 sequence (receptor, looked up): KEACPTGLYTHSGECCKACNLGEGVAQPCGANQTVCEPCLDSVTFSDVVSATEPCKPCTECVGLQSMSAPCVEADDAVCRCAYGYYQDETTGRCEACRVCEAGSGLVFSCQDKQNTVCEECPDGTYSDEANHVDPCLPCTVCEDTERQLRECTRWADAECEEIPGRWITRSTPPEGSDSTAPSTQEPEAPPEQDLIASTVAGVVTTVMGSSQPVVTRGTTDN
Protocol: as §1

| Binder | binding result (DR4) | binding result (HVEM) | binding result (TNFR1) | binding result (OX40) | binding result (CD27) | binding result (BAFFR) | binding result (TNFR3) | binding result (OPG) | binding result (CD137) | binding result (DcR2) | binding result (NGFR) |
| --- | --- | --- | --- | --- | --- | --- | --- | --- | --- | --- | --- |
| MAB4 (IgG1 kappa) (antibody, V domains shown) VH: EVQLVESGGGLVQSGGSLRLSCAASGFSLSSYGVDWVRQAPGKGLEWVGVIWGGGGTYYASSLMGRFTISRDNSKNTLYLQMNSLRAEDTAVYYCAKHAYGHDGGFAMDYWGQGTLVTVSS VL: EIVMTQSPATLSVSPGERATLSCRASESVSSNVAWYQQRPGQAPRLLIYGASNRATGIPARFSGSGSGTDFTLTISRLEPEDFAVYYCGQSYSYPFTFGQGTKLEIKR | no binding (tested: not on the sheet; paragraph 335: 0.5 µg/mL) | no binding (tested: not on the sheet; paragraph 335: 0.5 µg/mL) | no binding (tested: not on the sheet; paragraph 335: 0.5 µg/mL) | no binding (tested: not on the sheet; paragraph 335: 0.5 µg/mL) | no binding (tested: not on the sheet; paragraph 335: 0.5 µg/mL) | no binding (tested: not on the sheet; paragraph 335: 0.5 µg/mL) | no binding (tested: not on the sheet; paragraph 335: 0.5 µg/mL) | no binding (tested: not on the sheet; paragraph 335: 0.5 µg/mL) | no binding (tested: not on the sheet; paragraph 335: 0.5 µg/mL) | no binding (tested: not on the sheet; paragraph 335: 0.5 µg/mL) | no binding (tested: not on the sheet; paragraph 335: 0.5 µg/mL) |
| MAB5 (IgG1 kappa) (antibody, V domains shown, also called MABS (misprint of MAB5)) VH: EVQLVESGGGLVQSGGSLRLSCAASGFSLSSYGVDWVRQAPGKGLEWLGVIWGGGGTYYTSSLMGRFTISRDNSKNTLYLQMNSLRAEDTAVYYCAKHAYGHDGGFAMDYWGQGTLVTVSS VL: EIVMTQSPATLSVSPGERATLSCRASESVSSNVAWYQQRPGQAPRLLIYGASNRATGIPARFSGSGSGTDFTLTISRLEPEDFAVYYCGQSYSYPFTFGQGTKLEIKR | no binding (tested: not on the sheet; paragraph 335: 0.5 µg/mL) | no binding (tested: not on the sheet; paragraph 335: 0.5 µg/mL) | no binding (tested: not on the sheet; paragraph 335: 0.5 µg/mL) | no binding (tested: not on the sheet; paragraph 335: 0.5 µg/mL) | no binding (tested: not on the sheet; paragraph 335: 0.5 µg/mL) | no binding (tested: not on the sheet; paragraph 335: 0.5 µg/mL) | no binding (tested: not on the sheet; paragraph 335: 0.5 µg/mL) | no binding (tested: not on the sheet; paragraph 335: 0.5 µg/mL) | no binding (tested: not on the sheet; paragraph 335: 0.5 µg/mL) | no binding (tested: not on the sheet; paragraph 335: 0.5 µg/mL) | no binding (tested: not on the sheet; paragraph 335: 0.5 µg/mL) |
